Assay results published in patent US20140294846.
Where two headings read alike, the source gives them in different places.

B1: full-length mouse ADAMTS-1, v5-epitope tagged (wild type) (protein)
chain: ARGAHGRPTEEDEELVLPSLERAPGHDSTTTRLRLDAFGQQLHLKLQPDSGFLAPGFTLQTVGRSPGSEAQHLDPTGDLAHCFYSGTVNGDPGSAAALSLCEGVRGAFYLQGEEFFIQPAPGVATERLAPAVPEEESSARPQFHILRRRRRGSGGAKCGVMDDETLPTSDSRPESQNTRNQWPVRDPTPQDAGKPSGPGSIRKKRFVSSPRYVETMLVADQSMADFHGSGLKHYLLTLFSVAARFYKHPSIRNSISLVVVKILVIYEEQKGPEVTSNAALTLRNFCSWQKQHNSPSDRDPEHYDTAILFTRQDLCGSHTCDTLGMADVGTVCDPSRSCSVIEDDGLQAAFTTAHELGHVFNMPHDDAKHCASLNGVSGDSHLMASMLSSLDHSQPWSPCSAYMVTSFLDNGHGECLMDKPQNPIKLPSDLPGTLYDANRQCQFTFGEESKHCPDAASTCTTLWCTGTSGGLLVCQTKHFPWADGTSCGEGKWCVSGKCVNKTDMKHFATPVHGSWGPWGPWGDCSRTCGGGVQYTMRECDNPVPKNGGKYCEGKRVRYRSCNIEDCPDNNGKTFREEQCEAHNEFSKASFGNEPTVEWTPKYAGVSPKDRCKLTCEAKGIGYFFVLQPKVVDGTPCSPDSTSVCVQGQCVKAGCDRIIDSKKKFDKCGVCGGNGSTCKKMSGIVTSTRPGYHDIVTIPAGATNIEVKHRNQRGSRNNGSFLAIRAADGTYILNGNFTLSTLEQDLTYKGTVLRYSGSSAALERIRSFSPLKEPLTIQVLMVGHALRPKIKFTYFMKKKTESFNAIPTFSEWVIEEWGECSKTCGSGWQRRVVQCRDINGHPASECAKEVKPASTRPCADLPCPHWQVGDWSPCSKTCGKGYKKRTLKCVSHDGGVLSNESCDPLKKPKHYIDFCTLTQCS

Tests used:
[1] = test system: versican in the ECM materials deposited by TA3 transfectants
[2] = biological target: versican in the ECM materials deposited by TA3 transfectants; remark: listed apart in the source
[3] = biological target: P97857

| Molecule | degradation of versican in ECM of TA3 transfectants (Western blot, anti-DP antibody) [1] | degradation of versican in ECM of TA3 transfectants (Western blot, anti-DP antibody) [2] | auto-proteolytic cleavage of purified ADAMTS-1 in vitro (Western blot, anti-v5) [3] |
| --- | --- | --- | --- |
| ADAMTS-1E/Q, protease-dead mutant of mouse ADAMTS-1 (E386 to Q), v5-epitope tagged | expression of ADAMTS-1E/Q but not ADAMTS-1NTF, ADAMTS-1CTF inhibits the degradation |  |  |
| B1 |  | increased expression of exogenous ADAMTS-1 but not ADAMTS-1minusTSP-1 on top of the endogenous ADAMTS-1 promotes degradation of versican | ADAMTS-1 was auto-proteolytically cleaved to release v5-epitope tagged C-terminal cleavage fragments |
